Experimental data reported in publication PMC8054141, “The molecular basis of the inhibition of CaV1 calcium-dependent inactivation by the distal carboxy tail” (The Journal of Biological Chemistry, 2021).
Values belong to the binder of their own block, whether it stands above or below them.

Target: T1, Cerulean-ICDI1.4 (human)
T1 construct: CaV1.4 alpha1 subunit, human clone NP005174.2; ICDI domain of the distal carboxy tail; Fluorophore cloned KpnI/NotI and the channel peptide NotI/XbaI in pcDNA3, so Cerulean probably precedes the peptide; also called ICDI domain from CaV1.4; source: HEK293, transiently transfected (PEI), in live cells
Test: FRET or BRET; live-cell FRET two-hybrid (3^3-FRET) in HEK293 cells on an inverted microscope; Venus-tagged peptide as acceptor, Cerulean-tagged peptide as donor; FRET ratio of each cell against free donor concentration; Tyrode's bath with 2 mM CaCl2, pH 7.4; relative Kd calibrated and converted to Ka = 1/Kd
Details: partners not purified

Ka: 2.14e+07 M⁻¹
B1: Venus-PreIQ3-IQ-A1.3 (domain or fragment)
chain: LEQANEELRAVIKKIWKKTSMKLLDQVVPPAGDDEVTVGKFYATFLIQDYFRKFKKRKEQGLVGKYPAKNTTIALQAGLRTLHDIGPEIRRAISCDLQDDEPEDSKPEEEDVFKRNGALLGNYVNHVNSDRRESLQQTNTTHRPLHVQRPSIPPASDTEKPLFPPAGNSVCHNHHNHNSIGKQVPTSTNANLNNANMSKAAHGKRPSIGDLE
modifications: Limits approximate: about 30 residues PreIQ3 + IQ + about 150 residues A region. Position of the IQ isoleucine (I[0]) on P27732 was inferred as 1656; the paper's numbering (KPY1626, ALQ1635) implies …

Ka: 5.8e+06 M⁻¹
B2: Venus-PreIQ3-IQ-A1.3 F[−2]A (domain or fragment)
chain: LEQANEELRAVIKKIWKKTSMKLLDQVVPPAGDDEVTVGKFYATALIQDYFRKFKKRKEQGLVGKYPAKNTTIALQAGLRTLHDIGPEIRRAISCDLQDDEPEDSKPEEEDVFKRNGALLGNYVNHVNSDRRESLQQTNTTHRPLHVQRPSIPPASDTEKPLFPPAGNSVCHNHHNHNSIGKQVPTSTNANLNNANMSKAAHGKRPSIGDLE
modifications: F[-2]A, two residues before the canonical IQ isoleucine (inferred as 1656 on P27732). Limits approximate, as for m1. Venus tag omitted.
